Data: US20110300071A1, “TARGETING NPR-C IN ANGIOGENESIS AND ATHEROSCLEROSIS WITH A C-TYPE ATRIAL NATRIURETIC FACTOR (CANF)-COMB NANOCOMPLEX” (Washington University, priority 2010, published 2011)
Positions of bridges follow the written chain, without caps; N, C: chain ends. Residues, ends and D or L forms follow the SMILES beside them. No end group written: not given here. *: point of attachment. DOTA = O=C(O)CN1CCN(CC(=O)O)CCN(CC(=O)*)CCN(CC(=O)O)CC1

How the values were obtained:
in vitro = in vitro ADME; conditions: rabbit, serum
Protocol: On the contrary, only free ^64Cu was detected in the control samples (^64Cu-acetate incubated in rabbit serum) by radio-HPLC.

in vivo = conditions: rabbit, iv, total radioactivity
Protocol: In these experiments, the blood clearance studies were performed in normal rabbits (n=4) to evaluate the pharmacokinetics of tracer in vivo. About 20 MBq of ^64Cu-DOTA-C-ANF was injected intravenously into the left ear of rabbit, and blood sample (0.2 mL) was drawn from the contralacteral ear over the period of 1 h (1 min, 3 min, 5 min, 10 min, 20 min, 40 min and 60 min). The activity of the blood samples were counted in gamma counter and presented in percent injected dose per gram (ID %/g).

atherosclerotic lesions = test: MRI of Gadofluorine uptake in atherosclerotic-like lesions; type: in vivo, rabbit; conditions: 3T MRI 1 hour after administration
Protocol: The presence of atherosclerotic lesions in the rabbits was confirmed by 3T MRI 1 hour after administration of a non-receptor specific plaque-targeting contrast agent (Gadofluorine M, 0.5 μmol/kg body weight, Schering AG, Germany) (Sirol, M., et al., Circulation 109:2890-2896, 2004; Zheng, J., et al., Invest. Radiol. 43:49-55, 2008; Meding, J., et al., Mol. Imaging 2:120-129, 2007). […] For scanning, the rabbit was placed supine into a plastic bed. Three micropipette tubes filled with 0.5 mL Gadofluorine M served as fiducial markers, and were taped into position on the bed. At the beginning of the PET study, these tubes were drained of the Gadofluorine by syringe, and refilled with 0.5 mL of ^64Cu to serve as the PET fiducials. These helped to “co-localize” the plaque regions between the two image modalities.

[1] = target: natriuretic peptide clearance receptor (NPR-C), rabbit (rabbit) (UniProt G1SZF5); test: cell-based or functional assay
[2] = target: T1, natriuretic peptide clearance receptor (NPR-C), rabbit (rabbit, UniProt G1SZF5 25-536); test: cell-based or functional assay
T1 sequence: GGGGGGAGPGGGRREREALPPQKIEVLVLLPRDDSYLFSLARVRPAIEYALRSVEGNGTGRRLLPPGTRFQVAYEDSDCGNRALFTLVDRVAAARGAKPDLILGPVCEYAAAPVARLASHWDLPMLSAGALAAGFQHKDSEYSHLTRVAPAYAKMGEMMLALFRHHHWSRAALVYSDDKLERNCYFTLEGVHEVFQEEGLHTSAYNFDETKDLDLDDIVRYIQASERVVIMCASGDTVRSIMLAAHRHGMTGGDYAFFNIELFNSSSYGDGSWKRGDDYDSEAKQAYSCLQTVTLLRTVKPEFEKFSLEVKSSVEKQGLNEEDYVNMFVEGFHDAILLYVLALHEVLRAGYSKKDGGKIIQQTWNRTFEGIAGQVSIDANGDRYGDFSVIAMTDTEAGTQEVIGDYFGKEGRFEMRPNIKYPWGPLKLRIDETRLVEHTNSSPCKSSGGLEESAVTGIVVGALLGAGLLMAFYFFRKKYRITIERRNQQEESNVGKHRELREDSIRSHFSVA

[3] = target: T1, natriuretic peptide clearance receptor …; test: cell-based or functional assay; remark: listed apart in the source
[4] = target: T2, natriuretic peptide clearance receptor (NPR-C), mouse (mouse, UniProt P70180 41-536); test: cell-based or functional assay
T2 sequence (looked up): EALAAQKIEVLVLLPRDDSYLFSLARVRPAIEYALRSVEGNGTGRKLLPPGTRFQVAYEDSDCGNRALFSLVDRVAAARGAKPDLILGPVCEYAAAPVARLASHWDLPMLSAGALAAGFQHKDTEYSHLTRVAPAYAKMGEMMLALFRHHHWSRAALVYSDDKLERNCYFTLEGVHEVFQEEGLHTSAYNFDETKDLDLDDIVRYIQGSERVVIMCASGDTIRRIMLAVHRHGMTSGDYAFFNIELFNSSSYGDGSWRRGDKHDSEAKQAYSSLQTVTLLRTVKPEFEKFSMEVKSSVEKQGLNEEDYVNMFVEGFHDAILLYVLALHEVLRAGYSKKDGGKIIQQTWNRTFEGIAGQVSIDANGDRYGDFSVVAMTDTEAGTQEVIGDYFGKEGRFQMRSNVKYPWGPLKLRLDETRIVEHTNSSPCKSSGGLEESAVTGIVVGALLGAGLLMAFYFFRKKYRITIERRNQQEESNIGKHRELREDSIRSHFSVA

[5] = target: natriuretic peptide clearance receptor (NPR-C), mouse (mouse) (UniProt P70180); test: cell-based or functional assay

## CC[C@H](C)[C@@H]1NC(=O)[C@H](CCCNC(=N)N)NC(=O)[C@H](CC(=O)O)NC(=O)[C@H]([C@@H](C)CC)NC(=O)[C@H](CCCNC(=N)N)NC(=O)CNC(=O)CNC(=O)[C@H](Cc2ccccc2)NC(=O)[C@@H](NC(=O)[C@H](CO)NC(=O)[C@H](CO)NC(=O)[C@H](CCCNC(=N)N)NC(=O)CN2CCN(CC(=O)O)CCN(CC(=O)O)CCN(CC(=O)O)CC2)CSSC[C@@H](C(N)=O)NC(=O)[C@H](C)NC(=O)CNC1=O [^64Cu-DOTA-CANF, metal not drawn] ({DOTA}-RSSCFGGRIDRIGAC-NH2; disulfide 4-15)
In vitro
  remaining at 1 h: 97.7 ± 3.9%
In vivo
  tissue uptake at 0.05 h: 0.1 %ID/g

## CC(C(=O)NCC(=O)NCCCC[C@H](NC(=O)CO[C@H]1O[C@H](CO)[C@@H](O)[C@H](O)[C@@H]1O)C(=O)N1CCN(S(=O)(=O)C(F)(F)C(F)(F)C(F)(F)C(F)(F)C(F)(F)C(F)(F)C(F)(F)C(F)(F)F)CC1)N1CCN(CC(=O)O)CCN(CC(=O)O)CCN(CC(=O)O)CC1 (stereo partly shown) [Gadofluorine M]
Atherosclerotic lesions
  uptake in control arteries (MRI): no Gadofluorine M uptake
Atherosclerotic lesions; all rabbits, all time points
  MRI signal in injured vessels: increased signal

## RSSCFGGRIDRIGAC-NH2 (disulfide 4-15; not fully specified; also: 64Cu label) [^64Cu-CANF-Comb (25% CANF-Comb)]
[1]
  Injury SUV, 1 h: 5.31 SUV
  Injury SUV, 4 h: 4.76 SUV
  Injury SUV, 24 h: 3.74 SUV
  Injury/control SUV ratios, 1 h: 4.07
  Injury/control SUV ratios, 4 h: 4.07
  Injury/control SUV ratios, 24 h: 4.24
  Injury/muscle SUV ratios, 1 h: 38.2
  Injury/muscle SUV ratios, 4 h: 37.7
  Injury/muscle SUV ratios, 24 h: 40.8

## RSSCFGGRIDRIGAC-NH2 (disulfide 4-15; also: DOTA conjugated, site not given here, 64Cu chelated) [^64Cu labeled DOTA-C-type atrial natriuretic factor (CANF) conjugate]
[2]
  Injury/control SUV ratios, 1 h: 1.87 ratio
  Injury/muscle SUV ratios, 1 h: 3.39 ratio
[3]
  SUV ratio injured/control arteries, blocking with unlabeled C-ANF: 1.07 ratio
  SUV ratio injured/control arteries, pre-blocking: 1.42 ratio
  target-to-background ratio injured artery/muscle, blocking: 2.13 ratio
  target-to-background ratio injured artery/muscle, pre-blocking: 3.05 ratio
[4]
  ischemic/nonischemic uptake ratio, after blocking with unlabeled CANF: 1.24 ratio
  ischemic/nonischemic uptake ratio, before blocking: 2.34 ratio

B1: ^64Cu-DOTA-CANF-Comb nanoprobe (peptide)
peptide: RSSCFGGRIDRIGAC-NH2
modifications: disulfide 4-15; also: acylated with 4-pentynoic anhydride, clicked to azide-PEG methacrylate of PMMA-core/PEG-shell comb copolymer nanoparticle, DOTA in particle core chelates 64Cu
[5]
  ischemic/nonischemic uptake ratio, 1 h p.i.: 4.35
  ischemic/nonischemic uptake ratio, 24 h p.i.: 5.35
  tracer uptake in ischemic limb, 1 h p.i.: 6.3 % ID/g
  tracer uptake in ischemic limb, 24 h: 8.5 % ID/g
  uptake in lesion site with receptor blocking, 1 h: 3.34
  uptake in lesion site with receptor blocking, 4 h: 3.34
  uptake in lesion site with receptor blocking, 24 h: 3.31
  uptake ratio with receptor blocking, 1 h p.i.: 1.93
  uptake ratio with receptor blocking, 4 h p.i.: 1.87
  uptake ratio with receptor blocking, 24 h p.i.: 1.82
